Results from article PMC12106674.

Legend:
[1] = biological target: recombinant biotinylated human FcRn (Immunitrack) (human) (UniProt P55899); test: SPR; biotinylated human FcRn (~100 RU) captured on an SA sensor chip; 2-fold serial dilutions of albumin variants or GLP-1 albumin fusions injected in duplicates; pH 5.5 PBS (177 mM phosphate, 85 mM NaCl, 0.05% Tween 20), 25 °C, 40 µL/min; 1:1 Langmuir model
[2] = biological target: human FcRn of the human FcRn Affinity Column (Roche) (human) (UniProt P55899); test: analytical FcRn affinity chromatography; human FcRn Affinity Column (Roche); albumin or GLP-1 albumin fusions (2 mg/mL) loaded at pH 5.5 and eluted by a pH gradient from 5.5 (20 mM MES/HCl, 140 mM NaCl) to 8.8 (20 mM Tris/HCl, 140 mM NaCl), 0.5 mL/min, 110 min, room temperature
[3] = biological target: recombinant biotinylated human FcRn (Immunitrack) (human) (UniProt P55899)
[4] = biological target: human GLP-1 receptor (GLP-1R) on reporter cells (human) (UniProt P43220)
Chain of UniProt P43220 (P43220 24-463): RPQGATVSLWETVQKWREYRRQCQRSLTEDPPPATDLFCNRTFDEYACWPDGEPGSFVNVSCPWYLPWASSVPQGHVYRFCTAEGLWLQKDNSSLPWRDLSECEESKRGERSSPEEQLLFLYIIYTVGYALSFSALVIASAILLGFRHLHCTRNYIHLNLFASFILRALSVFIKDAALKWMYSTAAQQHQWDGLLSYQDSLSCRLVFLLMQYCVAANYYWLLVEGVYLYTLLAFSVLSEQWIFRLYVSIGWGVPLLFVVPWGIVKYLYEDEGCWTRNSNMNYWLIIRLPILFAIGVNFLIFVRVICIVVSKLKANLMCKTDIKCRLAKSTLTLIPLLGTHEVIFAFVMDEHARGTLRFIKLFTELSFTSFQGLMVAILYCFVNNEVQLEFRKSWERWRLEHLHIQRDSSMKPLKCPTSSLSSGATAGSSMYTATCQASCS

[5] = biological target: recombinant biotinylated human FcRn (Immunitrack) (human) (UniProt P55899); remark: listed apart in the source
[6] = biological target: recombinant biotinylated human FcRn (Immunitrack) (human) (UniProt P55899); remark: listed apart in the source

Substance | Kd [1] [nM] | elution pH [2] [pH] | plasma half-life after IV injection in hemizygous human FcRn Tg32 mice [3] [h] | koff [1] [s⁻¹] | kon [1] [M⁻¹ s⁻¹] | EC50 of luciferase signal in human GLP-1R reporter cells (0.00062–50 nM, 23 h) [4] [nM] | EC50 of luciferase signal in human GLP-1R reporter cells (0.08–6250 nM, 23 h) [4] [nM] | plasma half-life after IV injection in homozygous human FcRn Tg32 mice (GLP-1 WT: 1.3 days) [5] [h] | cellular recycling in HERA with HMEC-1-FcRn cells (800 nM), relative to GLP-1 WT [6]
unfused GLP-1(7–36) included in the reporter assay kit (peptide) |  |  |  |  |  | 0.28 |  |  | 
human albumin L585I (natural protein) | 604 |  |  | 0.0175 | 29000 |  |  |  | 
human albumin L585M (natural protein) | 678 |  |  | 0.0197 | 29000 |  |  |  | 
GLP-1 WT (albiglutide-mimic; two GLP-1(7-36) A2G in tandem fused to the N-terminus of human WT albumin) (from UniProt P02768 25-609) | 114 | 6.7 |  |  |  |  | 50 |  | 
GLP-1 LX (GLP-1 albumin fusion with WT albumin lacking L585) | 515 | 6.3 |  | 0.0221 | 43000 |  |  | 21.6 | 2 fold less
human albumin L585V (natural protein) | 684 |  |  | 0.0233 | 34000 |  |  |  | 

The remaining lines, values ahead:

Kd [1] [nM] | elution pH [2] [pH] | plasma half-life after IV injection in hemizygous human FcRn Tg32 mice [3] [h] | koff [1] [s⁻¹] | kon [1] [M⁻¹ s⁻¹] | EC50 of luciferase signal in human GLP-1R reporter cells (0.00062–50 nM, 23 h) [4] [nM] | EC50 of luciferase signal in human GLP-1R reporter cells (0.08–6250 nM, 23 h) [4] [nM] | plasma half-life after IV injection in homozygous human FcRn Tg32 mice (GLP-1 WT: 1.3 days) [5] [h] | cellular recycling in HERA with HMEC-1-FcRn cells (800 nM), relative to GLP-1 WT [6] | Substance
76.1 | 6.9 |  |  |  |  |  |  |  | Tanzeum (albiglutide) (from UniProt P02768 25-609)
0.9 |  | 103 | 0.0001 | 115000 |  |  |  |  | QMP variant recombinantly expressed without the L585 residue (QMP/LX) (natural protein)
0.2 |  |  |  |  |  |  |  |  | GLP-1 QMP/LX (GLP-1 albumin fusion with QMP-engineered albumin lacking L585)
0.3 |  | 108 | 4e-05 | 144000 |  |  |  |  | QMP-engineered human albumin (E505Q, T527M, K573P), full-length (natural protein)
< 0.03 | 7.8 |  | < 1e-05 | 381000 |  | 44.4 | 64.8 | 4.5 fold | GLP-1 QMP (GLP-1 albumin fusion with QMP-engineered albumin)
